{"source": "patent US20260028401A1", "about": "(SHENGHE CHINA BIOPHARMACEUTICAL, published 2026)", "binders": {"B1": {"name": "the antibody of the present invention (anti-ILT4 single-domain antibody, alpaca VHH, SEQ ID NO: 4) (VHH)", "VHH": "EVQLVESGGGLGQAGGSLRLSCVVSGRTFSRYAMGWFRQAPGKEREFVAAISWSPGDITTYADSVRGRFTISRDNAKNTVYLQMNSLKPEDTAVYYCAADPTAWGTQYDYWGQGTQVTVSS", "notes": "VHH screened from an alpaca immune library"}}, "key": {"[1]": {"biological_target": "T1, ILT4 on CHO-ILT4 cells (Manufacturer: Kang Yuan Bochuang, Cat: KC-1473) (UniProt Q8N423 22-597, limits assumed)", "T1 construct": "whole, on cells; also called ILT4 cell line", "T1 sequence (Q8N423 22-597 limits assumed)": "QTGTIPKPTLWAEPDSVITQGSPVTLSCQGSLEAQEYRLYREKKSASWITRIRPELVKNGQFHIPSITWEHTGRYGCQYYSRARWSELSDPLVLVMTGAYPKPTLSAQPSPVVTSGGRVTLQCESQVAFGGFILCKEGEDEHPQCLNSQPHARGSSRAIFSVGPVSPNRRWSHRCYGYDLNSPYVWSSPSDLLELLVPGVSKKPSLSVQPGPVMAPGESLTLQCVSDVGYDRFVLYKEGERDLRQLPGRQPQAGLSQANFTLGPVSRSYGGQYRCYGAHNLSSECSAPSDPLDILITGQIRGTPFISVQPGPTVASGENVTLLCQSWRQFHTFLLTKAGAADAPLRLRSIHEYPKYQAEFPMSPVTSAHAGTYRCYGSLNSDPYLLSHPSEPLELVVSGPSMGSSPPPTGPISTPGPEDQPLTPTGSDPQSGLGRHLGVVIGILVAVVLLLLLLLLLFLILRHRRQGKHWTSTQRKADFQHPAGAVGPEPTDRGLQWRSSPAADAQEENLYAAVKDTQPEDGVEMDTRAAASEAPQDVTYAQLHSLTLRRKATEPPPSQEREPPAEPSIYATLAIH", "assay": "flow cytometry on CHO-ILT4 cells, 7-point 5-fold titration, anti-VHH PE detection"}, "[2]": {"biological_target": "T2, Human LILRB2/CD85d/ILT4 Protein, His Tag (Manufacturer: KACTUS, Cat: LIL-HM4B2) (human, UniProt Q8N423 22-460, limits assumed)", "T2 construct": "Bought recombinant protein; not shown: His tag", "T2 sequence (Q8N423 22-460 limits assumed)": "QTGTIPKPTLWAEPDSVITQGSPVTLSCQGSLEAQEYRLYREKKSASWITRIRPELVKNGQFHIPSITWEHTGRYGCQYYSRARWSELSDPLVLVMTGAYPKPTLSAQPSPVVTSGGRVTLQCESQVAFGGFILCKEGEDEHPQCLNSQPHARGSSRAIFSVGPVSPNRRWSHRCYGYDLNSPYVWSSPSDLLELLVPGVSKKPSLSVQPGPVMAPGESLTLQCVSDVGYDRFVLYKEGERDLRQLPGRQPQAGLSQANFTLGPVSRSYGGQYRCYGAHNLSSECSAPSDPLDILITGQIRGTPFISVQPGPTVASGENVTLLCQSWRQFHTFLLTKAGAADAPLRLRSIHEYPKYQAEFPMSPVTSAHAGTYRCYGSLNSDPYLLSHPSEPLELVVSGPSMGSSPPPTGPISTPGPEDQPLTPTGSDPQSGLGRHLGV", "assay": "BLI (ForteBio, AHC biosensors), ILT4 His protein loaded as written, antibody at 100 nM, 180 s association, 200 s dissociation; non-humanized antibody of the invention", "experimental": "AHC Biosensors (Manufacturer: ForteBio. Inc., Cat: 18-5060) were pre-wetted for 20 min using PBST buffer and added to Human LILRB2/CD85d/ILT4 Protein, His Tag (Manufacturer: KATUS, Cat: LIL-HM4B2) protein diluted to 20 μg/mL using PBST to a target protein loading thickness of 1 nm. The antibody of the present invention and the antibody (humanized antibody) of the present invention (VHH and Fc sequences were SEQ ID NO: 6 and SEQ ID NO: 7, respectively) was diluted to 100 nM using PBST and added to the above sensor, and bound for 180 s and dissociated for 200 s."}}, "data": [{"binder": "B1", "values": [{"measurement": "EC50", "setting": "[1]", "result": 0.36, "unit": "µg/mL"}, {"measurement": "Kd", "setting": "[2]", "result": 0.107, "unit": "nM"}]}]}
